The target in assay [1] is T1, TFPI (human TFPI-1α), as coated or added in the ELISA and model assays (human), P10646. The experiment in a line: ELISA. As to conditions: modification not given. In general terms: ELISA stands for enzyme-linked immunosorbent assay.
Assay [2] concerns the target T1, TFPI (human TFPI-1α), as coated or …. The experiment in a line: competition. As to conditions: modification not given.

B1: JBT0720 (peptide)
chain: FQSKGNVFVTGYFARLRAKL
In assay [1], B1 came in with an IC50 of 27 nM. In other words, the double-digit nanomolar range.

B2: JBT0783 (peptide)
chain: LKARLREFYGFVFVNKKSQF
In assay [1], B2 gave an IC50 of over 1670 nM.

B3: JBT0681 (peptide)
chain: FQSKGAVFVFGYFARLRAKL
B3 returned an IC50 in assay [2] of 68 nM. That is a double-digit nanomolar value.

What is called IC50 is the point on the concentration scale where inhibition reaches its midpoint.

These data come from patent US20170157198A1.
